In patent publication US20260116991A1 (HAINAN SIMCERE ZAIMING PHARMACEUTICAL, published 2026):

How the values were obtained:
[1] = biological target: T1, human GPC3 on CHO-K1-human GPC3 cells (CHOK1-hGPC3.2B5) (human, UniProt P51654 25-554); assay: FACS, CHOK1-hGPC3.2B5 cells;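 further: flow cytometry of humanized antibodies binding to the cells over one hour in the cold, read as cell mean fluorescence intensity, with EC50 obtained by curve fitting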
T1 construct: whole, on cells
Description: The desired cells were expanded to a logarithmic growth phase in a T-75 cell culture flask, the medium was removed by pipetting, and the cells were washed twice with a PBS buffer, and digested with trypsin. Then a complete medium was added to stop the digestion, and the cells were blown into a single cell suspension. After counting, the cells were centrifuged, and the cell pellet was resuspended with an FACS buffer (PBS+2% fetal bovine serum) to 2×10⁶ cells/mL. The cell resuspension solution was added to a 96-well FACS reaction plate at 50 μl/well, and a humanized antibody sample to be tested was added at 50 μl/well for incubation at 4° C. for 1 h. […] After the plate was centrifuged and washed 3 times with a PBS buffer, 100 μl of the resulting solution was assayed and analyzed by FACS (FACS Canto™, purchased from BD Biosciences). Data analysis was performed by software (FlowJo) to obtain the mean fluorescence intensity (MFI) of the cells. Then, analysis was performed by software (GraphPad Prism8), data were fitted, and EC₅₀ values were calculated.

[2] = biological target: biotinylated labeled human GPC3 protein (produced in-house) (human, UniProt P51654 25-559, limits assumed, biotinylated (Dojindo, Cat. No. LK03); sites not stated); assay: ELISA, biotinylated human GPC3 protein

Binder	EC50 [1]	Max MFI [1]	OD450 at 0.0008 nM [2]	OD450 at 0.004 nM [2]	OD450 at 0.02 nM [2]	OD450 at 0.11 nM [2]	OD450 at 0.53 nM [2]	OD450 at 2.67 nM [2]	OD450 at 13.33 nM [2]	OD450 at 66.66 nM [2]
hAb003LH2L1 (antibody, human IgG1, V domains shown, Humanized F2.154.1; VH H2 + VL L1; expressed as human IgG1) VH: EVQLVQSGAEVKKPGSSVKVSCKASGYRFTDYEMHWVRQAPGQGLEWMGTIDPETGNTAYTQKFMDRVTITADKSTSTAYMELSSLRSEDTAVYYCTRGYSFTYWGQGTLVTVSS VL: DIVMTQTPLSLPVTPGEPASISCRSSQNIVHSNGNTYLQWYLQKPGQSPQLLIFKVSNRFSGVPDRFSGSGSGTDFTLKISRVEAEDVGVYYCFQGSHVPFTFGQGTKLEIK	1.07 nM	5140 MFI	0.151 OD450	0.376 OD450	1.03 OD450	1.98 OD450	2.43 OD450	2.47 OD450	2.53 OD450	2.54 OD450
hAb003LH2L1a (antibody, human IgG1, V domains shown, Humanized F2.154.1; VH H2 + VL L1a; expressed as human IgG1) VH: EVQLVQSGAEVKKPGSSVKVSCKASGYRFTDYEMHWVRQAPGQGLEWMGTIDPETGNTAYTQKFMDRVTITADKSTSTAYMELSSLRSEDTAVYYCTRGYSFTYWGQGTLVTVSS VL: DIVMTQTPLSLPVTPGEPASISCRSSQNIVHSDGNTYLQWYLQKPGQSPQLLIFKVSNRFSGVPDRFSGSGSGTDFTLKISRVEAEDVGVYYCFQGSHVPFTFGQGTKLEIK	11.6 nM	1770 MFI	0.088 OD450	0.146 OD450	0.423 OD450	1.18 OD450	1.9 OD450	2.14 OD450	2.18 OD450	2.34 OD450
hAb003LH2L1b (antibody, human IgG1, V domains shown, Humanized F2.154.1; VH H2 + VL L1b; expressed as human IgG1) VH: EVQLVQSGAEVKKPGSSVKVSCKASGYRFTDYEMHWVRQAPGQGLEWMGTIDPETGNTAYTQKFMDRVTITADKSTSTAYMELSSLRSEDTAVYYCTRGYSFTYWGQGTLVTVSS VL: DIVMTQTPLSLPVTPGEPASISCRSSQNIVHSNRNTYLQWYLQKPGQSPQLLIFKVSNRFSGVPDRFSGSGSGTDFTLKISRVEAEDVGVYYCFQGSHVPFTFGQGTKLEIK	0.584 nM	5000 MFI	0.171 OD450	0.372 OD450	1.05 OD450	1.97 OD450	2.44 OD450	2.39 OD450	2.5 OD450	2.6 OD450

Other lines, results leading:

EC50 [1]	Max MFI [1]	OD450 at 0.0008 nM [2]	OD450 at 0.004 nM [2]	OD450 at 0.02 nM [2]	OD450 at 0.11 nM [2]	OD450 at 0.53 nM [2]	OD450 at 2.67 nM [2]	OD450 at 13.33 nM [2]	OD450 at 66.66 nM [2]	Binder
45.1 nM	2070 MFI	0.082 OD450	0.115 OD450	0.334 OD450	1.12 OD450	1.97 OD450	2.27 OD450	2.21 OD450	2.45 OD450	hAb003LH1L1a (antibody, human IgG1, V domains shown, Humanized F2.154.1; VH H1 + VL L1a; expressed as human IgG1) VH: EVQLVQSGAEVKKPGSSVKVSCKASGYTFSDYEMHWVRQAPGQGLEWMGTIDPETGNTAYTQKFMDRVTITADKSTSTAYMELSSLRSEDTAVYYCTRGYSFTYWGQGTLVTVSS VL: DIVMTQTPLSLPVTPGEPASISCRSSQNIVHSDGNTYLQWYLQKPGQSPQLLIFKVSNRFSGVPDRFSGSGSGTDFTLKISRVEAEDVGVYYCFQGSHVPFTFGQGTKLEIK
1.2 nM	5010 MFI	0.147 OD450	0.371 OD450	1.11 OD450	2.1 OD450	2.35 OD450	2.5 OD450	2.44 OD450	2.65 OD450	hAb003LH1L1b (antibody, human IgG1, V domains shown, Humanized F2.154.1; VH H1 + VL L1b; expressed as human IgG1) VH: EVQLVQSGAEVKKPGSSVKVSCKASGYTFSDYEMHWVRQAPGQGLEWMGTIDPETGNTAYTQKFMDRVTITADKSTSTAYMELSSLRSEDTAVYYCTRGYSFTYWGQGTLVTVSS VL: DIVMTQTPLSLPVTPGEPASISCRSSQNIVHSNRNTYLQWYLQKPGQSPQLLIFKVSNRFSGVPDRFSGSGSGTDFTLKISRVEAEDVGVYYCFQGSHVPFTFGQGTKLEIK
